Consider 1 molecule from publication PMC3954793, “SHP-2 Binds to Caveolin-1 and Regulates Src Activity via Competitive Inhibition of CSK in Response to H2O2 in Astrocytes” (PLoS ONE, 2014).

Ends that are not written are not given here.

One experiment deals with T1, recombinant CSK protein ( (human CSK cloned for the …, UniProt P41240 1-450)).
T1 construct: CSK; the in-house construct holds the protein coding region of human CSK in pGEX-6P-1
Nature of the experiment: bead-based flow cytometric binding assay; caveolin-1 (1–50) peptide conjugated to carboxyl beads with EDC; incubated with recombinant CSK or SHP-2 protein (1–10 µg) for 1 h at RT; detected with anti-CSK or anti-SHP-2 and fluorescent secondary antibody. Conditions: both partners purified.

Experiment [1] addresses T2, recombinant SHP-2 protein ( (human SHP-2 cloned for the …, UniProt Q06124 1-593)).
T2 construct: SHP-2 (PTPN11); the in-house construct holds the protein coding region of human SHP-2 in pGEX-6P-1
T2 sequence (looked up): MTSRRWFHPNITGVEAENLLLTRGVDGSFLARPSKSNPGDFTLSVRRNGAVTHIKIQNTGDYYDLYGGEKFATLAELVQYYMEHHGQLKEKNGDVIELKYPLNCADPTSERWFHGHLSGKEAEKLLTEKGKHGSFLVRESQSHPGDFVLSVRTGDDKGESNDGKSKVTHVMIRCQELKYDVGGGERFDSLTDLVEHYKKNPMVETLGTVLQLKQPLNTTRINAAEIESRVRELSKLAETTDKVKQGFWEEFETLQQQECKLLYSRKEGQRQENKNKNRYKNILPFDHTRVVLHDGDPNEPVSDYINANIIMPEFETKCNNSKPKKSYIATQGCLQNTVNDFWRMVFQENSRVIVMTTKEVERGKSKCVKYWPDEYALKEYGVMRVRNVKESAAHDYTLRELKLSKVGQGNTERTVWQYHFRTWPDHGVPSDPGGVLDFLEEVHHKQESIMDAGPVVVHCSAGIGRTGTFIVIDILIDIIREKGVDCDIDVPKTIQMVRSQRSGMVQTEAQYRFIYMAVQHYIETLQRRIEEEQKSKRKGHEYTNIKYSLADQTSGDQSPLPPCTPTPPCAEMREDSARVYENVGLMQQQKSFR
The experiment is described as above. As to conditions: both partners purified.

T1 sequence (P41240 whole entry): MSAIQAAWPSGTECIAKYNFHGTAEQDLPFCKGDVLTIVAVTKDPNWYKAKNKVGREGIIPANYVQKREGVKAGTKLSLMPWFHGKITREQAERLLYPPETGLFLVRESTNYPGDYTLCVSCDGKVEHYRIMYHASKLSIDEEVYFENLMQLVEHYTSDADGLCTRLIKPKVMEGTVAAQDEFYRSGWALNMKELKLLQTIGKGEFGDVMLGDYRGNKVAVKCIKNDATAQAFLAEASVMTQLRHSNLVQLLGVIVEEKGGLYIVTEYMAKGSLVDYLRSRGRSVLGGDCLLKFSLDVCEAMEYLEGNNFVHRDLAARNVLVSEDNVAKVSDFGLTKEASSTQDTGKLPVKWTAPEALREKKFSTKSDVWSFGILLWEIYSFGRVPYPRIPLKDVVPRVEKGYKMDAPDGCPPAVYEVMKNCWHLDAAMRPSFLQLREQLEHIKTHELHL

B1: 1–50 mer caveolin-1 peptide (peptide, UniProt Q03135 1-50, looked up)
peptide: MSGGKYVDSEGHLYTVPIREQGNIYKPNNKAMADELSEKQVYDAHTKEID
modifications: not fully specified
notes: caveolin-1 residues 1-50, fifty-amino acid-long synthetic peptide; Conjugated to carboxyl beads with EDC; also called caveolin-1 peptide (1–50); p-caveolin-1 peptide; source: synthetic peptide (PEPTRON)
For the molecule B1, the binding result (with recombinant CSK protein; in experiment [1]) was “binds” in each case.
